Literature values as cited in article PMC8688582.

Molecular target: CD25 (Homo sapiens) (UniProt P01589)
Assay: ITC

UniProt P01589, sequence (P01589 22-240): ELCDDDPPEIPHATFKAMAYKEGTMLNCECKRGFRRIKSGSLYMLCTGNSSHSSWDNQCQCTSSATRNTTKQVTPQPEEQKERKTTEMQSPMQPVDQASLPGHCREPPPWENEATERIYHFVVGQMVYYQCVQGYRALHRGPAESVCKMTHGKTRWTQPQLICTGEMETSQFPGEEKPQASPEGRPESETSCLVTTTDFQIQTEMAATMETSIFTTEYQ

Substance: IL-2 (from UniProt P60568)
- Kd: 10 nM
